Laboratory results published in the DeepSol protein solubility set.

Assay: soluble on expression in E. coli; label from the status in PepcDB or PDB records

Row | Sequence | soluble on expression in E. coli
1 | MSLPAGPSMACQKGTSTWAKAERPRSAKGRSFRMARILLPFSATMGGSRLQWEGMAASHALKPILELLPEELPGEGYRRAQIAHWLYAKGARDFSEMTDLPKALREALAREWRLSEFSLVQAFPSQDGSVKYLFTLLDGKKTEAVYMPYENRKTVCLSTMVGCPAGCTFCATGALGFGRNLTAAEILDQLLTIAYHQGLSPREIRNVVLMGMGEPLLNLRNVLKAVRIMLHKKALALSPRRVTLSTVGIPKGIYRLAEEDLGVRLALSLHAPDDETRRKIIPTAHRYPIAEIMEAVRHYHAKTKRRVTFEYTLLKGVNDHLWQARLLAKLLKGLSAHVNLIPFNPWEGAPVVGTPRAGVLAFAEELKRLGVPTSIRWSRGQDVGAACGQLALKVPRPLTLTPLPGGAGR | soluble
2 | MVYFGRAKTLSHRHPNTGSGGCVFSLKTVLLYQQDSYLREFEARVEEASGGRVVLDRTAFHPGPHGGLDTDTGYIFYGDKRYRVVRAAVEGDVVAHYLDSDTATLEPGAVVKGVIDWERRYRMMRLHTFSHILAAVLYEKHDVLVTGGHITPDYGKDDFSIEGGGWREVIEEAFREANEIASRCIEVKVYWLPREEALKIPGIVKLANKLPPEVETLRIVEIPGVDVQADGGPHVRNTCEIGRVVITKLESKGKRRKRVYYTLEEALEPTPEAP | not soluble
3 | KMFSYEGQVIIVTGDEKSTEFCNTATANYDSFRAGPVFDGTGLNPFCFVAHDFTADYLPNGQAKMFSSNVSYAQGDRIFDDVSTWDDYSLRVNHPLRIAGDRVYLQGHGYAPTFSIQWPNGEKRTQTVQWQPTDPTFFLSDGVVRFDPPAGMNDSVYDRRQHQLAIQGLFAPTASWEGENHELLTSRFPAMTDPAVAIDVYRGDNGLDSGKGQNLFKLDTSLVHSGQLQRLERVNLTKGESVTLDDGTVVTFEGAEEFANYQISHDPTQ | not soluble
4 | MKISIENIGKIKSTSILLDGFTVIAGENDSGKSTVGKIVYSIIQAFSIYPQFRKEKIRRKTSHSLRFFITELRRNFDLTKHDSLRQMMSFSFVNHIMADPDDALYEIRGVLDKLEESYPEKLETLIKLKSRLYGIQREIDSLSESDDIFESITDLMQSEFGGEIDRKQDSRPPSFEINDGETTVISAKFSDGIITDGIYSGGLGLGLGDATYIDGASILQYAHLINLNDSDPRLPFHITDLARKLISPTLVRGGSSNLADIYKGRLVFDETQNSFYFDKGGYRVCLNNIASGIKNIGVLDLLVKKGVICDGSLLVLDEPEINLHPKWQTQLAKIICELHQAGVYILLTTHSPYMIEALHYYANVSGIKSNFYLACKSIANPDDVDFIDLSMNVGAIIEDLAQPLWDIVEDNNEFLEHHHHHH | soluble
5 | MAHHHHHHMVSANKSTMPLSQGCAAAAGIPLEYFETRDHINHLISLGMPRVTPHTVPPKERVATLPVPPQQDHTELMLTISSGGSPQKSYFSTTESHLLTCGTLTPKTARKRPEIDSFDMEGAFAALVKRLESRVDEEDNKDMAS | not soluble
6 | MKLLFTSAFTQMFGYSNHMDQASNCQSTRNKIIKMMKKEEFPSGFQVPLHYPKYSKSDYEVMDDLRLDLLLKQYGFSFEGSLEDKRVFAIESFLWPDQL | soluble
7 | MSLSNYISIKGAKVNNLKNIDVNIPRNKLVVITGLSGSGKSSLAFDTGKTICPVCHGTRLKKEAGYVKVGGKSISQLVDLPIHDLKEFFRTLELDAHDTAIAKRILTEITNRINFLMDVGLGYLTLNRLSNSLSGGESQRINLATSLGSSLVGSLYILDEPSIGLHSRDTDRLIKVLRQLQELGNTVVVVEHDEEIIRAADYIIDIGPQAGRLGGQIVYQGNMNDLQRNSNSYTVRYLLGEEGHHHHHH | soluble
8 | MAHHHHHHMDEGLPIDASEAQLEAIRREVAQYPLLSLSLPLNKESMIVKEMEHDDAYLAQTLSLFGASPVSTKQYDFGSIRYSRRDGNCFYRCAGFRLCELIVEHPERAAEYVALLKSREESLSRLFGLFVFDFTDALAEILKGVADKTITSVAQVYNRFISDDAAYVLAALRYLISAYLQEHEEEYEPFVSGLGYGAVRDYCNAEVELVDHESDNVQLAAFAKAFNVCIKVYALDRNAGNNITEYSFNGEDNDAGDRLVVGLLYMPGHYNLLGRGPG | not soluble
9 | MSDITTKSTKQTESLVCGEFKALGPAPYYVGDEIIVMRCAETINEIFSDWTKRANLDENKYTPFDVNAPIELPRRTDMLKSYNLDPPINETGKIASKMIARELCDRHAIPSVIFCSPDFASVETAHLIKSYIGEKCGAIRIEPELSTLHKSAHVFFGPNHFTSLGYGIDEKNPLHAVSDGVSLSDLVNRIKRAFYELTSKVDNALIIVDSLSMMIISSLFHNVYIRNDSSVDLERLRSLASFPSLSNFTAYRVGGQTGVKTYDLTSTCLRPLTFTGFSNEIDLE | not soluble
